Reference: the supplement of paper PMC10724198
± gives the standard deviation of the averaged measurements.

Test system: Saccharomyces cerevisiae
Test: protein stability index of tFT-peptide fusion (C-terminal peptide) (PSI (0-1 scale)); higher = more stable (slower turnover)
Conditions: genetic background: wild type; temperature: 30 C
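Further: PSI is a weighted mean of sequencing reads over stability bins, variants kept only with over 10 reads, mCherry proximal and sfGFP distal, peptide attached via GGGS linker.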

Sequence | protein stability index
LFLCSGWVACWW | 0.498 ± 0.013
LFLGLLLMNDWL | 0.774 ± 0.096
LFLLPPLLPLPP | 0.7361 ± 0.00058
LFLPYLPPRPLL | 0.7642 ± 0.0064
LFLTPTSPVAAL | 0.651 ± 0.065
LFLVWSLGSGRN | 0.672 ± 0.098
LFPGSHHLSRFF | 0.7587 ± 0.005
LFPIYFVCNYSA | 0.508 ± 0.0075
LFPRFPPPAPPL | 0.723 ± 0.099
LFPRPSILKGVP | 0.657 ± 0.091
LFPSSGTRLTPS | 0.667 ± 0.027
LFPVTAIACRPS | 0.7266 ± 0.006
LFRPNWLPLSNN | 0.634 ± 0.018
LFRPSPPRPLPP | 0.651 ± 0.0071
LFRRPSVVFLFV | 0.496 ± 0.062
LFSFCQGCISFC | 0.715 ± 0.02
LFSPPPPPIPSP | 0.73 ± 0.0078
LFSRSSHGRFLT | 0.624 ± 0.041
LFSSPPSLPPPL | 0.739 ± 0.036
LFSVLLFFFFHL | 0.522 ± 0.069
LGACGWVDWWGL | 0.774 ± 0.0083
LGARGAGAPAPG | 0.7286 ± 0.0037
LGCKGQLFWYIW | 0.6327 ± 0.003
LGCLHRLLGVRL | 0.752 ± 0.048
LGCLRLVPSPPG | 0.757 ± 0.1
LGCVLGLLVFGG | 0.601 ± 0.041

Sequence | protein stability index
LGFQSRTTRCCG | 0.6685 ± 0.0014
LGFRCLGRGPDH | 0.644 ± 0.033
LGFSDIMSSLVV | 0.801 ± 0.16
LGGGCVRCVFMW | 0.637 ± 0.039
LGGGGLRSRGAG | 0.785 ± 0.21
LGGGGRWVVPGA | 0.722 ± 0.029
LGGGPTGARPAM | 0.782 ± 0.078
LGIEFGVADVGL | 0.786 ± 0.054
LGIRFPLSNELI | 0.867 ± 0.15
LGKIYPFYSILL | 0.7038 ± 0.002
LGLCSFGCERCH | 0.704 ± 0.015
LGLLGSLRTLSF | 0.667 ± 0.14
LGLSCTIFPIGI | 0.679 ± 0.018
LGLYNRFSMFGS | 0.645 ± 0.026
LGQAVGAVGVEV | 0.64 ± 0.072
LGRFRLSRREGG | 0.6706 ± 0.0043
LGRPRRGGGVSG | 0.6998 ± 0.0012
LGRRGVVRVSPR | 0.687 ± 0.052
LGSNLVCFLCVS | 0.566 ± 0.053
LGSRSGPLFPCV | 0.655 ± 0.015
LGTGRGAEGVIG | 0.791 ± 0.071
LGTILGWFSICT | 0.59 ± 0.007
LGVFAVGGVRLG | 0.668 ± 0.008
LGVGGLRSRGAG | 0.74 ± 0.2
LGVGGRWGVPGA | 0.715 ± 0.04
LGWGRGGPLSGG | 0.6937 ± 0.0018

Sequence | protein stability index
LGWWGVWSWGRG | 0.655 ± 0.033
LHDICADRSSIL | 0.739 ± 0.009
LHFYASFPSPLV | 0.669 ± 0.044
LHGASLCVPPSP | 0.5205 ± 0.0013
LHKAATADPPRV | 0.711 ± 0.02
LHKSINPSPHPP | 0.6864 ± 0.0066
LHLGRLVHGGVD | 0.673 ± 0.017
LHLPPPLPSTLP | 0.671 ± 0.012
LHPPLALPRPPP | 0.711 ± 0.05
LHPPPPPPALTP | 0.729 ± 0.068
LHRTKHLRKGHK | 0.6905 ± 0.0033
LIGTAPGITGFN | 0.661 ± 0.011
LISADTFVHFND | 0.725 ± 0.02
LISRLVSSLIHT | 0.621 ± 0.015
LITRLLCSPCSQ | 0.605 ± 0.0059
LKDLGKQVVTVR | 0.587 ± 0.0062
LKFLFTYLGFLS | 0.532 ± 0.03
LKGVVRFISGQD | 0.71735 ± 0.00052
LKKDVYANNLTD | 0.673 ± 0.004
LKKEFSGKEIQD | 0.743 ± 0.049
LKKSYSTPFTHY | 0.69 ± 0.048
LKLTFPFWNTGT | 0.728 ± 0.034
LKNGDINYARFG | 0.679 ± 0.083
LKQTNQHKVNTD | 0.643 ± 0.053
LKRDLGGTSTRG | 0.6615 ± 0.0057
LKRGKIVDRGWY | 0.641 ± 0.082

Sequence | protein stability index
LKRMQKYIDMSS | 0.714 ± 0.11
LKSYHKLKTCSS | 0.678 ± 0.061
LKTLKHRLRHLE | 0.732 ± 0.034
LLAFRTVSVGVL | 0.5212 ± 0.0014
LLCLRGRVTLCP | 0.537 ± 0.031
LLDVFFPRFFCH | 0.611 ± 0.078
LLFDQTRIGMDV | 0.675 ± 0.038
LLFISPPPRCLL | 0.75 ± 0.036
LLFPFLSFLLPL | 0.66 ± 0.037
LLFRCGARSAGG | 0.676 ± 0.022
LLGLVGGVVGLA | 0.624 ± 0.01
LLGPSGRAIKIQ | 0.6659 ± 0.0013
LLHCPSRGFLFS | 0.851 ± 0.17
LLHQSRSQVSFY | 0.717 ± 0.093
LLILGTPKQDSR | 0.67 ± 0.036
LLKGPDLLGRAS | 0.721 ± 0.051
LLLALPSRPPPS | 0.666 ± 0.13
LLLPNPTPPPPP | 0.625 ± 0.0012
LLLPPPVFPPSL | 0.683 ± 0.01
LLLWCRGGLLGS | 0.753 ± 0.024
LLPAPLPTALPL | 0.65 ± 0.07
LLPAPPRLLPSS | 0.68 ± 0.024
LLPHCRPGSTAA | 0.692 ± 0.019
LLPPGSSSRVAL | 0.733 ± 0.022
LLPPPLPPLHSS | 0.6828 ± 0.0054
LLPPPLPQAPPT | 0.708 ± 0.03

Sequence | protein stability index
LLPPPPTPPLNL | 0.688 ± 0.033
LLPPPVFPPLSP | 0.753 ± 0.013
LLPPQPYTPLHL | 0.679 ± 0.13
LLPPTLHPPHLP | 0.751 ± 0.0096
LLPRQSRYNAHF | 0.669 ± 0.075
LLPRSSPTPLAH | 0.735 ± 0.066
LLPSAAKLTLLP | 0.77 ± 0.07
LLPSAAPPPQFL | 0.686 ± 0.035
LLPSPLPPHPPP | 0.637 ± 0.053
LLPSRAPTSIPL | 0.686 ± 0.037
LLQQILKDYAEI | 0.686 ± 0.033
LLRDRRQETILK | 0.623 ± 0.092
LLRPPSAPSTLL | 0.706 ± 0.084
LLRSEETTIEPF | 0.7531 ± 0.004
LLRTHTTPKLGG | 0.661 ± 0.051
LLSASPASLSFL | 0.706 ± 0.054
LLSFFLSPPSIL | 0.734 ± 0.02
LLSHLSPCTRIG | 0.606 ± 0.051
LLSHPDLPPIPP | 0.503 ± 0.086
LLSLSGVLLVPP | 0.656 ± 0.013
LLSLVYSPLSPL | 0.664 ± 0.035
LLSRLVVRGLVS | 0.629 ± 0.087
LLSRLWPASSSG | 0.672 ± 0.08
LLSSFIFSILFF | 0.496 ± 0.0085
LLTGVPRFSLDS | 0.683 ± 0.014
LLTSCLLSCCFR | 0.671 ± 0.027

Sequence | protein stability index
LLYPALQHVSSV | 0.721 ± 0.12
LMLFCLGCDMSV | 0.576 ± 0.027
LMYGCAQHRNRS | 0.61 ± 0.033
LPAPGRPSPCRL | 0.809 ± 0.041
LPAPPPHPLSPV | 0.7161 ± 0.0063
LPAPRFLVPAFL | 0.637 ± 0.025
LPAPSPPSFPAP | 0.743 ± 0.099
LPASPGSVPFLF | 0.716 ± 0.084
LPCPRPVPPSPA | 0.626 ± 0.018
LPDPPEPHLRLP | 0.694 ± 0.025
LPDPPLSPPPVR | 0.675 ± 0.016
LPFLPPPPPLRP | 0.694 ± 0.11
LPFRPWLPRSLI | 0.68 ± 0.059
LPGPDLLSRMAS | 0.659 ± 0.019
LPHFHPPLDPPA | 0.692 ± 0.0079
LPHPPTPPLPRP | 0.667 ± 0.078
LPHSPSLPPAFP | 0.708 ± 0.032
LPHTRPLPPRVD | 0.704 ± 0.015
LPILRVVNLMGL | 0.5935 ± 0.0048
LPISASLLSFPL | 0.716 ± 0.048
LPLASIYQLRSN | 0.713 ± 0.039
LPLPPASRSAPP | 0.589 ± 0.028
LPLPPLLPPPSP | 0.68 ± 0.073
LPLPPLRSSRPL | 0.665 ± 0.036
LPLPPSFVHLPF | 0.732 ± 0.05
LPLPSPLLPPRP | 0.712 ± 0.0051

Sequence | protein stability index
LPLRLVPLFSPP | 0.722 ± 0.025
LPLYSFSVDFSF | 0.576 ± 0.0059
LPNRRRLFLFPS | 0.735 ± 0.05
LPPAFRIPHTWY | 0.71 ± 0.0071
LPPGFPYLSQLP | 0.666 ± 0.052
LPPHPPREAPPN | 0.682 ± 0.083
LPPLPPSPPSPR | 0.697 ± 0.029
LPPPHPPFPPRF | 0.715 ± 0.059
LPPPHPPTPAPP | 0.621 ± 0.075
LPPPLPSTRPVF | 0.6943 ± 0.005
LPPPPLTLPPPP | 0.694 ± 0.02
LPPPPPPPPPSP | 0.82377 ± 0.00068
LPPPPPSRSRPV | 0.712 ± 0.039
LPPPRPPASPSL | 0.677 ± 0.033
LPPPSFPSISLF | 0.675 ± 0.14
LPPPSPPPPPSP | 0.68 ± 0.028
LPPPTPPPPLLP | 0.779 ± 0.093
LPPPTSFPSFPP | 0.724 ± 0.027
LPPRSPLYPLPP | 0.613 ± 0.018
LPPSPPTVPSPP | 0.67 ± 0.027
LPPSSLPLPCLL | 0.793 ± 0.21
LPPSSSPSYIFS | 0.744 ± 0.047
LPPTPSSPPPPL | 0.709 ± 0.06
LPPVQARDPNWQ | 0.6367 ± 0.0014
LPQTVPPPPSPP | 0.624 ± 0.06
LPRALLLHGHRP | 0.771 ± 0.067

Sequence | protein stability index
LPRFRNRFPRRW | 0.664 ± 0.036
LPRLHLSPASPP | 0.611 ± 0.048
LPSARSLVSPSP | 0.74 ± 0.0092
LPSPAFLTPPPL | 0.788 ± 0.1
LPSPHPPPPPAH | 0.727 ± 0.081
LPSPISLSPPLP | 0.652 ± 0.051
LPSPPPLISLIP | 0.644 ± 0.12
LPSPRRPPTPSA | 0.657 ± 0.015
LPSPSSSPPPFP | 0.7274 ± 0.0013
LPSRLPPQPSPA | 0.687 ± 0.071
LPTLFPSAPSAI | 0.664 ± 0.05
LPVPLFPLFLTS | 0.573 ± 0.011
LPVPTLGRPLSL | 0.69 ± 0.034
LPVVGLVPPARS | 0.5103 ± 0.003
LPYSAPPISLTN | 0.702 ± 0.011
LQCAVPPRDLTS | 0.645 ± 0.074
LQHCSAPLLTNS | 0.74 ± 0.085
LQLKNTNKNKTT | 0.666 ± 0.047
LQPPAPPSPQSD | 0.702 ± 0.081
LRAPRGEFHWFL | 0.684 ± 0.11
